In PMC2799420:

Target: Lyngbya majuscula JHB protein 7968 (Lyngbya majuscula JHB)
Assay: PAGE analysis; kind of PAGE (native or SDS) and conditions not told; mentioned only in the discussion

Work on “Lyngbya majuscula JHB protein 7968 (natural protein)” yielded a stoichiometry N of 2.
